Test results reported in article PMC8510529 (mBio, 2021).
Where a chain is given by its changes, count along the chain named.

B1: WNV-120 (antibody, V domains shown)
VH: KVQLEESGGGWVKPGRSLRLSCGASGFRFDDYAMHWVRQVPGKGLEWVSGISWDSDGIGYADSVKGRFTISRDNAKNSLFLQMNSLRAEDTALYYCVKDKGWLIQGRFDSWGQGIRVTVSS
VL: DIVVTQSPDSLAVSLGERVTINCKTSQSVLYTFNNQNYLAWYQQKSGQPPKLLIYWASTRESGVPDRFSGSGSGTDFTLTISRLQAEDVAVYYCQQFYISPPGTFGQGTKVEIK
B2: WNV-99 (antibody, V domains shown)
VH: QVRLVESGGGVVQPGRSLRLSCAASGFTLSSYGMHWVRQAPGKGLEWVAIISYDGSDKYYADSVKGRFTISRDNSKNTLYLQMNSLRPEDTAMYYCAKPDRSSSPFAHWGQGTLVTVSS
VL: SYELTQPPSVSVSPGQTARITCSGDALPKQYAFWYQQKPGQTPVVVISKDSERPSGIPERFSGSSSGTTVTLTISGVQAEDEADYYCQSADSSGIWVFGGGTKLTVL
B3: WNV-103 (antibody, V domains shown)
VH: EVQLVESGGGLLQPGGSLRLSCAASGFSFSRYWMHWVRQAPGKGLIWVSRINTDGSTTIYADSVKGRFTVSRDNAKNTLFLQMSRLRPEDTAVYYCARVIASPGISYGMDVWGHGTTVTVSS
VL: SHELTQPPSVSVSPGQTATITCSGDALPKQYAYWYQQKSGQAPVLVIYKDTKRPSGIPERFSGSSSGTVVTLTISGVQAEDEADYYCQSADISSTYVVFAGGTKLTVL
B4: WNV-95 (antibody, V domains shown)
VH: QVQLQESGPGLVKPSQTLSLTCTVSGGSINSGAFYWSWIRQHPGKGLEWIGFIYYSGSTYYNPSLRSRVTISVDTSKNQFSLKLISVTAADTAVYYCARDRPDDPGPYFDSWGRGTLVTVSS
VL: QSALTQPASVSGSPGQSITISCTGTSNDVGRYNSVSWYQQHPGNAPKLMIYDVSNRPSGVSNRFSGSKSGNTASLTISGLQAEDEADYYCSSYTSSSSVVFGGGTKLTVL
B5: WNV-96 (antibody, V domains shown)
VH: QVQLVQSGAEVKKPGASVKVSCRPSGYIFTNYYIEWVRQAPGQGLEWMGIINPSGGKTTYAQKFQGRVTMTSDTSTSTVYMELSSLRSDDTAVYYCARDGNGSDYWGQGTRVTVSS
VL: DVQMTQSPSSLSASVGDRVTITCRASQNINNYLNWYQQKPGRAPKLLIYATSNLESGVPSRFSGSRSGADFTLTISSLQPEDFASYYCQQSYNAPRTFGHGTKVEIK
notes: also called IgG1-WT variant of WNV-96
B6: WNV-104 (antibody, V domains shown)
VH: QVQLVESGGGVVQPGTSLRLSCAASGFTFRSYGMHWVRQAPGKGLEWVALIWYDGSNKYYADSVKGRFTISRDNSRSTLYLQMNSLRAEDTAVYYCARDLGEYDSLVGPLYTARLGYWGQGTLVTVSS
VL: DIQMTQSPSSLSASVGDRVTMTCQASQDISNYLNWYQQKPGKAPNLLIYDASNLETGVPSRFSGSGSGTDFTFTISSLQPEDIATYYCQQYDNLPITFGQGTRLEIK
B7: WNV-117 (antibody, V domains shown)
VH: EVQLLESGGGLVQPGGSLRLSCAASGFTFSNYAMSWVRQAPGKGLEWVSSISDRGDYTYYADSVKGRFTISRDKSRNTLYLQIKSLRAEDTAVYYCAKCWGRGSYSGIPD
VL: B6 VL with M21I, T22S, Q27H, S30T, Y32F, N45K, T56A, P95F
B8: WNV-98 (antibody, V domains shown)
VH: QVQLVESGGGLVKPGGSLRLSCAASGFPFTNYYMSWIRQAPGKGLEWISYITSRGDTAYYADSVKGRFTVARDNSKNSLYLQMNSLRAEDTAMYFCARGGDDYADSWGQGILVTVSS
VL: EIVLTQSPATLPLSPGERATLSCRASQSINTNLAWYQQKPGQAPRLLIYETSHRASAIPARFSGSGSGTDFTLKISSLEPEDLAIYYCQQYRNWPQTFGQGTRLEIK
B9: WNV-113 (antibody, V domains shown)
VH: QITLKESGPTLVKPTQTLTVTCTFSGFSLNTNGVGVGWIRQPPGKALEWLALIYWDDVKRYRPSLESRLTITKDTSKNQVVLTMTDMDPVDTGTYYCAHRFHSRGWYTFDYWGQGTRVTVSS
VL: SYVLTQPPSVSVAPGQTARITCGGNNIGGKNVHWYQQKPGQAPVLVVYDDNDRPSGIPERFSGSNSGNTATLTISRVEAGDEADFYCQVWDSNSEHVVFGGGTKLTVL
B10: WNV-116 (antibody, V domains shown)
VH: QMQLVESGGGVVQPGRSLRLSCVASGFNFKTYVMNWVRQAPGKGLEWVAVILSDGDNKYYADSVKGRFTISRDNSKNTLFLQMDSLRADDTAVYYCTRVPHCSTSSCYKEYYNYYMDVWGKGTTVSVSS
VL: EIVLTQSPATLSLSPGDRATLSCRASQSLSTSLAWYQQKPGQAPRLVIYDASNRAADIPARFSGSGSGTDFTLTIRSLEPEDFAVYYCQQRSNWPPRYTFGQGTKLEIK
B11: WNV-100 (antibody, V domains shown)
VH: QLQLQESGSGLVKPSQTLSLTCTVSGDSIGSGGFSWTWIRQPPGKGLEWIGNIYHSGGTYYNPSLKSRVTISIDNSTHFSLKLSSVTAADSAVYYCARDRGMVIKRRPWSYGLDVWGQGTTVSVSS
VL: QSVLTQPPSASGTPGQRVTISCSGGSSNIGSNSVSWYQHLPRTAPKLLIYSNNQRSSGVPDRFSGSKSGTSASLAISGLQSDDEADYYCAAWDDSLHVLFGGGTKLTVL
B12: WNV-97 (antibody, V domains shown)
VH: QVQLVESGGGLVQPGGSLRVSCAASGFTFSTYEMNWVRQAPGKGLEWVSYISNSGTIIYYADSVKGRFTISRDNAKNSLYLQMNSLRAEDTAIYYCGRVLRDRDVVAGPPARVWDYYYYGMDVWGQGTTVTVSS
VL: DIVMTQSPLSLPVTPGEPASISCRSSQSLLHSSGYNCLDWYLQKPGQSPQLLIYLRSNRASGVPDRFSGSGSGTDFTLKISRVEAEDVGVYYCMQTLQTPWTFGQGTKVEIK

Biological target: T1, recombinant soluble WNV NS1 protein (Native Antigen) (West Nile virus, strain of bought …, UniProt Q9Q6P4)
T1 construct: also called recombinant WNV NS1; recombinant, hexameric WNV NS1; source: bought: Native Antigen
Assay: ELISA
Conditions: both partners purified

T1 sequence (Q9Q6P4 792-1143): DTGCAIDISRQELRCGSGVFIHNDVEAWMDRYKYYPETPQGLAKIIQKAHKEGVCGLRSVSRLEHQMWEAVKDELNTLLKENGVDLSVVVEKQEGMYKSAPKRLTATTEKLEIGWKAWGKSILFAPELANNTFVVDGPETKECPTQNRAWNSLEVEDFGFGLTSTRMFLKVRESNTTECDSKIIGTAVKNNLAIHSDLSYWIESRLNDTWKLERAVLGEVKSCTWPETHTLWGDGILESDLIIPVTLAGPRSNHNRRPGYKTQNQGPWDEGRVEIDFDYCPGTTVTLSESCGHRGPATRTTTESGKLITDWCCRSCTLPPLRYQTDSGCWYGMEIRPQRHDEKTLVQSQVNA

Row | Binder | binding result
1 | B1 | binds
2 | B2 | binds
3 | B3 | binds
4 | B4 | binds
5 | B5 | binds
6 | B6 | binds
7 | B7 | binds
8 | B8 | binds
9 | B9 | binds
10 | B10 | binds
11 | B11 | binds

Biological target: T2, JEV NS1 protein (Native Antigen) (Japanese encephalitis virus, strain not …, UniProt P27395)
T2 construct: source: bought: Native Antigen
Assay: ELISA
Conditions: both partners purified

T2 sequence (P27395 795-1146): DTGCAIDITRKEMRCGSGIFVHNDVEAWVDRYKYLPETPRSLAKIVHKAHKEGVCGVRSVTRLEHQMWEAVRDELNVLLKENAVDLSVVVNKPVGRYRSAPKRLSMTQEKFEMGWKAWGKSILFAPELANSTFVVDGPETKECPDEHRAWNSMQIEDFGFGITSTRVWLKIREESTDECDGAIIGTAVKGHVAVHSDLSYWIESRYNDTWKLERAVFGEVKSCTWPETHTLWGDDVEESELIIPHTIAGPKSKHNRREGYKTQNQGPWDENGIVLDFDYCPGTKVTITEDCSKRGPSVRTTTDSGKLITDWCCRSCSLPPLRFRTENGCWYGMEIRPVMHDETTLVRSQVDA

Row | Binder | binding result
12 | B1 | binds
13 | B2 | binds
14 | B11 | binds

Biological target: T3, DENV2 NS1 protein (Native Antigen) (Dengue virus type 2, strain  …, UniProt P29990)
T3 construct: source: bought: Native Antigen
Assay: ELISA
Conditions: both partners purified

T3 sequence (P29990 776-1127): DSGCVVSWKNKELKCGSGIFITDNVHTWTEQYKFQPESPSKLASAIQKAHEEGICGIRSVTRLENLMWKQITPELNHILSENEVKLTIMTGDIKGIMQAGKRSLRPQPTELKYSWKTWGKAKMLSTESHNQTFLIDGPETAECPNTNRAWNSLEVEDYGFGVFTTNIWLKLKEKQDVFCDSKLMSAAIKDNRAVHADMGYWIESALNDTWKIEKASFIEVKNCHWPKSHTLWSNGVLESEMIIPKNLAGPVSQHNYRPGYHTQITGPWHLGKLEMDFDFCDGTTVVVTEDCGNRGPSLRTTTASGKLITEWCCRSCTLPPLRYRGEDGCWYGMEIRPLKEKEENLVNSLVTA

Row | Binder | binding result
15 | B11 | binds

Biological target: T4, TBEV NS1 protein (Native Antigen) (Tick-borne encephalitis virus, strain …, UniProt P14336)
T4 construct: source: bought: Native Antigen
Assay: ELISA
Conditions: both partners purified

T4 sequence (P14336 777-1128): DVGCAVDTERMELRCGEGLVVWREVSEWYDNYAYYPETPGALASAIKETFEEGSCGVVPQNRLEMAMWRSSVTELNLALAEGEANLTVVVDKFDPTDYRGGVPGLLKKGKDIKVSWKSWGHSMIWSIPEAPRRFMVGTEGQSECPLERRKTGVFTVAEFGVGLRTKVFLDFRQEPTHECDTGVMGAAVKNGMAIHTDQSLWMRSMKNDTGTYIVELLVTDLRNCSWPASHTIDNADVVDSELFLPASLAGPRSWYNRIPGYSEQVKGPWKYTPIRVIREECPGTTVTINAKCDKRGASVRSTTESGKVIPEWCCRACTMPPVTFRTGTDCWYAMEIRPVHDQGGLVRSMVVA

Row | Binder | binding result
16 | B12 | binds
17 | B2 | binds
18 | B11 | binds

Biological target: T5, full-length WNV NS1 (strain 382-99), wild type, expressed in HEK293T cells (West Nile virus, New York 1999, strain …, UniProt Q9Q6P4)
T5 construct: also called WT NS1; WT WNV NS1; source: HEK293T, transfected (pFM-A1.2), on fixed cells
Assay: flow cytometry on cells
Conditions: one partner purified

T5 sequence (Q9Q6P4 792-1143): as the sequence (Q9Q6P4 792-1143) above

Row | Binder | binding result
19 | B1 | binds
20 | B2 | binds
21 | B3 | binds
22 | B4 | binds
23 | B5 | binds
24 | B6 | binds
25 | B7 | binds
26 | B8 | binds
27 | B9 | binds
28 | B10 | binds
29 | B11 | binds
